Where two headings read alike, the source gives them in different places.
Tests used:
[1] = Far-UV circular dichroism, helical content of T-domain peptides; format: physicochemical; conditions: for no. of residues, unordered: total number in peptide excluding tags minus residues in helices; for secondary structure, in words: far-UV CD, 50 mM sodium phosphate; for no. of residues, helix: from helical content by far-UV CD, DichroWeb, tags assumed unordered
[2] = reference for disordered protein in CD222/CD208 plot; cited from earlier work
[3] = Thermal melting followed by CD at 222 nm; format: physicochemical; conditions: CD 222 nm, 0.5 °C/min, 1 cm cuvette, pH 7.0
[4] = molecular target: TolC (Escherichia coli, UniProt P02930); conditions: for occlusion of TolC channels (Figure 3 legend): 2 μg/mL both sides, 50 mV, 0.1 M KCl, 5 mM Tris-HCl pH 7.5
[5] = tested on: TolC trimer; assay: Co-elution of T-domain peptides with TolC on Superdex 200 size-exclusion column; format: binding, Escherichia coli; conditions: TolC:peptide 1:2, Superdex 200; peak shift and SDS–PAGE
[6] = molecular target: T1, TolC trimer (E. coli, UniProt P02930 23-493); assay: SEC
T1 sequence (looked up): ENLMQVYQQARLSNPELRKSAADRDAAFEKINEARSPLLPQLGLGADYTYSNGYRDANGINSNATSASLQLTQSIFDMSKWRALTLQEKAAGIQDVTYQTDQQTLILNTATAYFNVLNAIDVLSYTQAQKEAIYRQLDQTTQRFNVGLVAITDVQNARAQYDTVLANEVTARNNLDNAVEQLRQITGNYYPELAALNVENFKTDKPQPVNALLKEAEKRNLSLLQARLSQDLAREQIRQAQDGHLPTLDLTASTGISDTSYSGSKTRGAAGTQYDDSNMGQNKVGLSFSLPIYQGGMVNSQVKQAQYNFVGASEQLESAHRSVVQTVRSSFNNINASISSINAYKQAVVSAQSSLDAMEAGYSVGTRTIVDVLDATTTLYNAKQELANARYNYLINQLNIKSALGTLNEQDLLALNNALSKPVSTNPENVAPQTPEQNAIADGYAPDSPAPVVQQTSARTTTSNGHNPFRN

[7] = molecular target: T1, TolC trimer; assay: SEC; remark: listed apart in the source
[8] = molecular target: T1, TolC trimer; assay: occlusion of TolC ion channels in planar bilayer lipid membranes
[9] = molecular target: T1, TolC trimer; assay: precipitation upon mixing

## 81–140 ^b: colicin E1 T-domain peptide, residues 81–140 (AKAKANRDALTQRLKDIVNEALRHNASRTPSATELAHANNAAMQAEDERLRLAKAEEKAR; UniProt P02978 81-140, looked up, fragment)
[1]
  no. of residues, unordered: 25 residues

## α-synuclein
[2]
  helical content: 0%

## 139–190 ^b: colicin E1 T-domain peptide, residues 139–190 (ARKEAEAAEKAFQEAEQRRKEIEREKAETERQLKLAEAEEKRLAALSEEAKA; UniProt P02978 139-190, looked up, fragment)
[1]
  no. of residues, unordered: 7 residues

## 141–190 ^c: colicin E1 T-domain peptide, residues 141–190 (KEAEAAEKAFQEAEQRRKEIEREKAETERQLKLAEAEEKRLAALSEEAKA)
[1]
  no. of residues, unordered: 5 residues
[3]
  cooperativity of thermal melting: not cooperative

## 1–40 ^c: colicin E1 T-domain peptide, residues 1–40 (METAVAYYKDGVPYDDKGQVIITLLNGTPDGSGSGGGGGK; UniProt P02978 1-40, looked up, fragment)
[1]
  secondary structure, in words: predominately disordered
  no. of residues, helix: 0 residues
  no. of residues, unordered: 40 residues

## 100–140 ^b: colicin E1 T-domain peptide, residues 100–140 (EALRHNASRTPSATELAHANNAAMQAEDERLRLAKAEEKAR; UniProt P02978 100-140, looked up, fragment)
[4]
  occlusion of TolC channels (Figure 3 legend): Occlusion of TolC channels
[4]; 2 μg/mL on both sides of BLM
  effect on transmembrane current through TolC channels: significant and irreversible decrease in transmembrane current
[1]
  no. of residues, unordered: 15 residues

B1: colicin E1 T-domain peptide T1–120 (domain or fragment, UniProt P02978 1-120, looked up)
chain: METAVAYYKDGVPYDDKGQVIITLLNGTPDGSGSGGGGGKGGSKSESSAAIHATAKWSTAQLKKTQAEQAARAKAAAEAQAKAKANRDALTQRLKDIVNEALRHNASRTPSATELAHANN
[1]
  no. of residues, helix: 46 ± 12 residues
  no. of residues, unordered: 74 residues
[5]
  co-elution / interaction with TolC, in words: Co-elution was detected
[6]
  binding result: binds

B2: 1–100 ^b: colicin E1 T-domain peptide, residues 1–100 (peptide)
chain: METAVAYYKDGVPYDDKGQVIITLLNGTPDGSGSGGGGGKGGSKSESSAAIHATAKWSTAQLKKTQAEQAARAKAAAEAQAKAKANRDALTQRLKDIVNE
[4]
  occlusion of TolC channels (Figure 3 legend): Lack of TolC occlusion
[4]; 10 μg/mL
  effect on transmembrane current through TolC channels: did not decrease the transmembrane current
[1]
  no. of residues, helix: 30 ± 4 residues
  no. of residues, unordered: ~70 residues
[1]; versus next shorter peptide (1–81, 1–100, 1–120, 1–140, 1–190 series)
  increase in helical residues on lengthening the peptide: 17 residues

B3: 81–141 ^c: colicin E1 T-domain peptide, residues 81–141 (peptide, UniProt P02978 81-141, looked up, fragment)
chain: AKAKANRDALTQRLKDIVNEALRHNASRTPSATELAHANNAAMQAEDERLRLAKAEEKARK
[1]
  no. of residues, unordered: 44 residues

B4: colicin E1 T-domain peptide T57–190 (domain or fragment)
chain: WSTAQLKKTQAEQAARAKAAAEAQAKAKANRDALTQRLKDIVNEALRHNASRTPSATELAHANNAAMQAEDERLRLAKAEEKARKEAEAAEKAFQEAEQRRKEIEREKAETERQLKLAEAEEKRLAALSEEAKA
[7]
  binding result: binds

B5: 100–190 ^b: colicin E1 T-domain peptide, residues 100–190 (peptide, UniProt P02978 100-190, looked up, fragment)
chain: EALRHNASRTPSATELAHANNAAMQAEDERLRLAKAEEKARKEAEAAEKAFQEAEQRRKEIEREKAETERQLKLAEAEEKRLAALSEEAKA
[1]
  no. of residues, unordered: 12 residues
[3]
  cooperativity of thermal melting: not cooperative

B6: 1–81 ^c: colicin E1 T-domain peptide, residues 1–81 (peptide, UniProt P02978 1-81, looked up, fragment)
chain: METAVAYYKDGVPYDDKGQVIITLLNGTPDGSGSGGGGGKGGSKSESSAAIHATAKWSTAQLKKTQAEQAARAKAAAEAQA
[1]
  secondary structure, in words: low helical content
  no. of residues, helix: 13 ± 2 residues
  no. of residues, unordered: ~70 residues
[1]; listed as T1–81
  secondary structure, in words: predominately disordered

B7: colicin E1 T-domain peptide T1–140 (domain or fragment, UniProt P02978 1-140, looked up)
chain: METAVAYYKDGVPYDDKGQVIITLLNGTPDGSGSGGGGGKGGSKSESSAAIHATAKWSTAQLKKTQAEQAARAKAAAEAQAKAKANRDALTQRLKDIVNEALRHNASRTPSATELAHANNAAMQAEDERLRLAKAEEKAR
[6]
  binding result: binds

B8: 41–140 ^b: colicin E1 T-domain peptide, residues 41–140 (peptide, UniProt P02978 41-140, looked up, fragment)
chain: GGSKSESSAAIHATAKWSTAQLKKTQAEQAARAKAAAEAQAKAKANRDALTQRLKDIVNEALRHNASRTPSATELAHANNAAMQAEDERLRLAKAEEKAR
[1]
  no. of residues, helix: 65 ± 5 residues
  no. of residues, unordered: 35 residues

B9: colicin E1 T-domain peptide T57–140 (domain or fragment)
chain: WSTAQLKKTQAEQAARAKAAAEAQAKAKANRDALTQRLKDIVNEALRHNASRTPSATELAHANNAAMQAEDERLRLAKAEEKAR
[4]; I = 0.1 M, pH 7.5
  concentration at which TolC channels were efficiently occluded: ≥ 0.2 µM
  concentration at which TolC channels were not occluded: 40 nM
[1]
  no. of residues, helix: 54 ± 4 residues
  no. of residues, unordered: 30 residues
[5]
  co-elution / interaction with TolC, in words: severe protein precipitation
[8]
  Kd: ~100 nM

B10: colicin E3 peptide T1–83: naturally disordered T1–83 peptide of colicin E3 used for zero helical content (peptide, UniProt P00646 1-83, looked up, fragment)
chain: MSGGDGRGHNTGAHSTSGNINGGPTGLGVGGGASDGSGWSSENNPWGGGSGSGIHWGGGSGHGNGGGNGNSGGGSGTGGNLSA
[1]; reference for disordered protein in CD222/CD208 plot
  helical content: 0%

B11: colicin E1 T-domain peptide T57–120 (domain or fragment, UniProt P02978 57-120, looked up)
chain: WSTAQLKKTQAEQAARAKAAAEAQAKAKANRDALTQRLKDIVNEALRHNASRTPSATELAHANN
[1]
  no. of residues, helix: 44 ± 4 residues
  no. of residues, unordered: 20 residues
[5]
  co-elution / interaction with TolC, in words: severe protein precipitation
[9]
  binding result: binds

B12: 41–120 ^b: colicin E1 T-domain peptide, residues 41–120 (peptide, UniProt P02978 41-120, looked up, fragment)
chain: GGSKSESSAAIHATAKWSTAQLKKTQAEQAARAKAAAEAQAKAKANRDALTQRLKDIVNEALRHNASRTPSATELAHANN
[1]
  no. of residues, helix: 29 ± 2 residues
  no. of residues, unordered: 51 residues

Source: paper PMC5366289 (Biochemistry, 2016)
